In publication PMC9083066 one finds binding data, which are given here for one sequence.

The series concerns T1, FabT (Enterococcus faecalis), ORF:b010fabc.
T1 sequence: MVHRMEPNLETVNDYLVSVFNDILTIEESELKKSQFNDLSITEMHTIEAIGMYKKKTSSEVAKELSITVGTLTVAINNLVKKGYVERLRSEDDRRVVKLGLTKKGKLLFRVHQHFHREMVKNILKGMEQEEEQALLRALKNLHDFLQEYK
The experiment in a line: EMSA. Conditions: 10 nM DNA, 0.1 uM FabT, 0-10 uM acyl-ACP, 10 mM Tris-HCl pH 7.0, 50 mM NaCl, 1 mM EDTA, 1 mM DTT, 10% glycerol, room temperature, 30 min; 6% native PAGE. Background: A gel shift assay detects complexes by their altered migration in electrophoresis.

“GTCAGGATCCGTCGACATCTGTATTCACCTCCACTGCTTTTGAAAAAAGGTTCTTTCTTTTACTAAAACGCTAAGATACATTGTACTCACAATTTGGGTATTTGTCCATCTTTTTTTCATTTGAGTAACAAACTGATGTCAAGACAATTGCAAATTACTGCAGAATTCTGAC (double strand) [E. faecalis acpB promoter]”: the binding result is given as “no binding”.
